Results on five molecules are retold here after patent US20210284709A1 (JUNO THERAPEUTICS, published 2021).

For assay [1], the target named is HLA-A2/E6(29-38) tetramer (human; HPV 16). Nature of the assay: cell-based or functional assay.
For assay [2], the target named is HLA-A2/E7(11-19) tetramer (human; HPV 16). The assay is described as follows: cell-based or functional assay.
Assay [3] concerns the target T1, HLA-A2/E6(29-38) tetramer (human; HPV 16).
T1 construct: also called E6(29-38) peptide-MHC tetramer; E6 tet
The assay is described as follows: tetramer staining of clonal T cell line vs control.

The target in assay [4] is T1, HLA-A2/E6(29-38) tetramer. The assay is described as follows: flow cytometry, tetramer + anti-CD8; transfected Jurkat-derived cells, CD8+ cells.
Method: For transfection, the CD4+ and CD4+/CD8+ cell mixtures were transiently transfected with TCR-encoding plasmids and 48 hours after transfection, cells were assessed by flow cytometry for (1) binding of the target peptide in the context of an MHC molecule (HLA:A02:01) by staining with an E6(29-38) peptide- or an E7(11-19) peptide-MHC tetramer reagent, and/or (2) CD8+ independent binding of the target by co-staining the tetramer-labeled cells with an anti-CD8 antibody.

B1: modified version of TCR 3 (TCR)
TCR alpha: AQKITQTQPGMFVQEKEAVTLDCTYDTSDQSYGLFWYKQPSSGEMIFLIYQGSYDEQNATEGRYSLNFQKARKSANLVISASQLGDSAMYFCAMREGRGFKTIFGAGTRLFVKANIQKPDPAVYQLRDSKSSDKSVCLFTDFDSQTNVSQSKDSDVYITDKCVLDMRSMDFKSNSAVAWSNKSDFACANAFNNSIIPADTFFPSPESSCDVKLVEKSFETDTNLNFQNLSVIGFRILLLKVAGFNLLMTLRLWSS
TCR beta: GAGVSQSPRYKVAKRGQDVALRCDPISGHVSLFWYQQALGQGPEFLTYFQNEAQLDKSGLPSDRFFAERPEGSVSTLKIQRTQQEDSAVYLCASSHLAGFTGELFFGEGSRLTVLEDLKNVFPPEVAVFEPSEAEISHTQKATLVCLATGFYPDHVELSWWVNGKEVHSGVCTDPQPLKEQPALNDSRYCLSSRLRVSATFWQNPRNHFRCQVQFYGLSENDEWTQDRAKPVTQIVSAEAWGRADCGFTSESYQQGVLSATILYEILLGKATLYAVLVSALVLMAMVKRKDSRG
As for B1, the “% CD8+/IC IFNγ+” value in assay [1] came out at 95.1%; in assay [2] it was 2.51%.

B2: modified version of TCR 7 (TCR, V domains shown)
V domain 1: KNQVEQSPQSLIILEGKNCTLQCNYTVSPFSNLRWYKQDTGRGPVSLTIMTFSENTKSNGRYTATLDADTKQSSLHITASQLSDSASYICVVSRDNYGQNFVFGPGTRLSVLP
V domain 2: EPEVTQTPSHQVTQMGQEVILRCVPISNHLYFYWYRQILGQKVEFLVSFYNNEISEKSEIFDDQFSVERPDGSNFTLKIRSTKLEDSAMYFCAITDRTNYGYTFGSGTRLTVVE
Regarding B2, the “% CD8+/IC IFNγ+” value worked out at 70.5% in assay [1] and 62.4% in assay [2].

B3: modified version of TCR 8 (TCR, V domains shown)
V domain 1: KQEVTQIPAALSVPEGENLVLNCSFTDSAIYNLQWFRQDPGKGLTSLLLIQSSQREQTSGRLNASLDKSSGRSTLYIAASQPGDSATYLCAVRPLGNTPLVFGKGTRLSVIA
V domain 2: KVTQSSRYLVKRTGEKVFLECVQDMDHENMFWYRQDPGLGLRLIYFSYDVKMKEKGDIPEGYSVSREKKERFSLILESASTNQTSMYLCASSLWGASTDTQYFGPGTRLTVLE
Consider B3, for which the “% CD8+/IC IFNγ+” value in assay [1] was found to be 95%; in assay [2] it was 11.4%.

B4: TCR 10 (native, clonal T cell line) (TCR, V domains shown)
V domain 1: RKEVEQDPGPFNVPEGATVAFNCTYSNSASQSFFWYRQDCRKEPKLLMSVYSSGNEDGRFTAQLNRASQYISLLIRDSKLSDSATYLCVVNFPSRGAGGTSYGKLTFGQGTILTVHP
V domain 2: DVKVTQSSRYLVKRTGEKVFLECVQDMDHENMFWYRQDPGLGLRLIYFSYDVKMKEKGDIPEGYSVSREKKERFSLILESASTNQTSMYLCASSLSLTGNYGYTFGSGTRLTVVE
On to B4, for which the binding result in assay [3] is reported as “binds”.

B5: modified version of TCR 9 (TCR)
TCR alpha: AQKITQTQPGMFVQEKEAVTLDCTYDTSDPSYGLFWYKQPSSGEMIFLIYQGSYDQQNATEGRYSLNFQKARKSANLVISASQLGDSAMYFCAMRTAGGTSYGKLTFGQGTILTVHPNIQNPDPAVYQLRDSKSSDKSVCLFTDFDSQTNVSQSKDSDVYITDKCVLDMRSMDFKSNSAVAWSNKSDFACANAFNNSIIPEDTFFPSPESSCDVKLVEKSFETDTNLNFQNLSVIGFRILLLKVAGFNLLMTLRLWSS
TCR beta: NAGVTQTPKFRVLKTGQSMTLLCAQDMNHEYMYWYRQDPGMGLRLIHYSVGEGTTAKGEVPDGYNVSRLKKQNFLLGLESAAPSQTSVYFCASSYFGTAYEQYFGPGTRLTVTEDLKNVFPPEVAVFEPSEAEISHTQKATLVCLATGFYPDHVELSWWVNGKEVHSGVCTDPQPLKEQPALNDSRYCLSSRLRVSATFWQNPRNHFRCQVQFYGLSENDEWTQDRAKPVTQIVSAEAWGRADCGFTSESYQQGVLSATILYEILLGKATLYAVLVSALVLMAMVKRKDSRG
On to B5, for which the “% CD8+/IC IFNγ+” value in assay [1] came out at 91.1%. The “% CD8+/IC IFNγ+” value in assay [2] was determined as 19.5%. Also, in assay [4], the “% cells E6 tet+/CD8+ quadrant” value stood at 42.5% and the “% cells E6 tet+/CD8- quadrant” value was determined as 0.051%.
